T1: human GIP receptor (human, UniProt P48546 22-466)
T1 sequence (looked up): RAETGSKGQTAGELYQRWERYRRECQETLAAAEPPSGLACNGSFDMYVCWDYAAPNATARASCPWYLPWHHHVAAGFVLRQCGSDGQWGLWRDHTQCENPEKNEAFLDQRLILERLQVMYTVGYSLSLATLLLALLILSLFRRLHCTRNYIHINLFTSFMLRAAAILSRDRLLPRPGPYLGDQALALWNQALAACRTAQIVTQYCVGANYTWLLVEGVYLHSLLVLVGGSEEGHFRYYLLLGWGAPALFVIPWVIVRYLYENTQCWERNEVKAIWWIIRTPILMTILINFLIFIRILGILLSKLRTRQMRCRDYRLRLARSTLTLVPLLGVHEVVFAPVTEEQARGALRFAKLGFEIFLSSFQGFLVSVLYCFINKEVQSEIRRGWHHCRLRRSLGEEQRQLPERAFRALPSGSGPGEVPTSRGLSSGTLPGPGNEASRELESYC


Tests used:
[1] = system: C57 BL/6J DIO mice; assay: In vivo pharmacodynamics in high-fat diet induced obesity (DIO) mice; design: species or system mouse; conditions: Table 9-1; 3 nmol/kg; Day 15; Mean±SEM
Source text: High-fat diet induced obesity (DIO) mice have characteristics such as obesity, elevated blood sugar, insulin resistance, and lipid abnormalities, all of which are very significant metabolic syndromes similar to a human body. The effects of the compounds of the present application on body weight, food intake, blood sugar, and lipids in C57 BL/6J DIO mice were studied.
Obesity was induced in mice by feeding with a high-fat diet (60 kcal % of calories from fat). […] After grouping, one animal was raised in each cage for one week, during which each of the animals was injected subcutaneously (S.C.) with a solvent (1×PBS, 5 ml/kg) to pre-adapt the experimental operation process.
After the preparation of animals, vehicle control or compounds were administered to groups of animals by subcutaneous injection, in which the compounds were dissolved in 1×PBS, the dosage was 5 ml/kg, and the administration operation was started at 9:00 am and conducted once every three days (Q3D) for 15 days. Throughout the entire experimental study, animal weight and food intake were measured daily before administration, and compared with initial weight and food intake of the same animal before administration to calculate a percentage change in animal weight (%) and cumulative food intake, so as to evaluate the impact of compounds on changes in body weight and food intake.
At the end point of the experiment (Day 15), the body weight of the mice was measured, and then fasting blood glucose was measured by taking blood from the tail tip of broken tail without anesthesia. After the blood collection, the animals were anesthetized with CO2 and euthanized. Then, blood was taken from the heart and plasma was separated by centrifugation. The plasma was used to measure total cholesterol (TC), low-density lipoprotein cholesterol (LDL-C), triglycerides (TG), and blood insulin content. The liver was separated for homogenization, and then centrifuged to obtain the supernatant for determining triglyceride content in the liver.
All results were expressed in Mean±SEM, and the results were analyzed by one-way ANOVA using GraphPad Prism 5 software, followed by Dunnett's post hoc test compared to the Vehicle control group. The difference at the p<0.05 level was considered statistically significant.

[2] = molecular target: human GLP-1 receptor (human, UniProt P43220 24-463); assay: cell-based or functional assay
[3] = molecular target: T1, human GIP receptor; assay: cell-based or functional assay
[4] = molecular target: human GCG receptor (human, UniProt P47871 26-477); assay: cell-based or functional assay
Sequence of human GCG receptor (P47871 26-477): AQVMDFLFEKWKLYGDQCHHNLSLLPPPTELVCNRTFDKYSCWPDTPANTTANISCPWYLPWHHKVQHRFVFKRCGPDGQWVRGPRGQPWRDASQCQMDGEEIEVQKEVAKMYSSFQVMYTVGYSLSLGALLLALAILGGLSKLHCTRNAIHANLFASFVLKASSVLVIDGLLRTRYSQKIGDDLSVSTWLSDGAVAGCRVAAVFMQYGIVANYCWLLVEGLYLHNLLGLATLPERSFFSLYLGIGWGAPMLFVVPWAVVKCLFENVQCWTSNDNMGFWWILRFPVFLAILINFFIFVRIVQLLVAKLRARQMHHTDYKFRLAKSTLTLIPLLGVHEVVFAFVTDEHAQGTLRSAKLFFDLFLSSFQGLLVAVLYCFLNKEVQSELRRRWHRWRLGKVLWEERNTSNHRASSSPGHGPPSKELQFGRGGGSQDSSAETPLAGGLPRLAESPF

Molecule | Liver TG [1] | cAMP EC50, HEK-293 cells stably overexpressing human GLP-1 R [2] | cAMP Rel. A (%) against human GLP-1 (7-37), human GLP-1 R cells [2] | cAMP EC50, CHO cells stably overexpressing human GIP R [3] | cAMP Rel. A (%) against human GIP, human GIP R cells [3] | cAMP EC50, HEK-293 cells stably overexpressing human GCG R [4] | cAMP Rel. A (%) against human GCG, human GCG R cells [4]
CC[C@H](C)[C@H](NC(=O)[C@H](Cc1ccccc1)NC(=O)[C@H](C)NC(=O)C(C)(C)NC(=O)[C@H](CCC(N)=O)NC(=O)[C@H](C)NC(=O)[C@H](CCCCNC(=O)COCCOCCNC(=O)COCCOCCNC(=O)CC[C@H](NC(=O)CCCCCCCCCCCCCCCCCCC(=O)O)C(=O)O)NC(=O)[C@H](CCCCN)NC(=O)[C@H](CC(=O)O)NC(=O)[C@H](CC(C)C)NC(=O)[C@](C)(CC(C)C)NC(=O)[C@@H](NC(=O)[C@H](CO)NC(=O)[C@H](Cc1ccc(O)cc1)NC(=O)[C@H](CC(=O)O)NC(=O)[C@H](CO)NC(=O)[C@@H](NC(=O)[C@](C)(Cc1ccccc1F)NC(=O)[C@@H](NC(=O)CNC(=O)[C@H](CCC(N)=O)NC(=O)C(C)(C)NC(=O)[C@@H](N)Cc1ccc(O)cc1)[C@@H](C)O)[C@@H](C)O)[C@@H](C)CC)C(=O)N[C@@H](CCC(=O)O)C(=O)N[C@@H](Cc1ccccc1)C(=O)N[C@@H](CC(C)C)C(=O)N[C@@H](CC(C)C)C(=O)N[C@@H](CCC(=O)O)C(=O)NCC(=O)NCC(=O)N1CCC[C@H]1C(=O)N[C@@H](CO)C(=O)N[C@@H](CO)C(=O)NC(C)(C)C(=O)N[C@@H](Cc1c[nH]cn1)C(=O)N1CCC[C@H]1C(=O)N1CCC[C@H]1C(=O)N1CCC[C@H]1C(=O)N[C@@H](CO)C(N)=O [Compound 24] | 30.7 ± 1.31 mg |  |  |  |  |  | 
YXQGTXTSDYSIXLDKKAQXAFIEFLLEGRPSSXHPPPS (Aib at 2; αMeF at 6; αMeL at 13; Lys 17 side chain AEEAc-AEEAc-γGlu-CO(CH2)18COOH; Aib at 20; Aib at 34; C-terminal amide (NH2)) [Compound 37] |  | 28 pM | 157% | 15 pM | 1210% | 82 pM | 69.5%
YXQGTXTSDYSILLDKKAQXAFIEFLLESHPSSXHPPXS (Aib at 2; αMeF(2F) at 6; Lys 17 side chain AEEAc-AEEAc-γGlu-CO(CH2)18COOH; Aib at 20; Aib at 34; Ac3c at 38; C-terminal amide (NH2)) [Compound 41] |  | 12 pM | 367% | 73 pM | 248% | 81 pM | 70.4%
YXQGTXTSDYSILLDKKAQXAFIEFLLESHPSSXHPPXS (Aib at 2; αMeF at 6; Lys 17 side chain AEEAc-AEEAc-γGlu-CO(CH2)18COOH; Aib at 20; Aib at 34; Ac3c at 38; C-terminal amide (NH2)) [Compound 42] |  | 9 pM | 489% | 70 pM | 259% | 495 pM | 11.5%
YXQGTXTSDYSIXLDKKAQXAFIEFLLESHPSSXHPPXS (Aib at 2; αMeF(2F) at 6; αMeL at 13; Lys 17 side chain AEEAc-AEEAc-γGlu-CO(CH2)18COOH; Aib at 20; Aib at 34; Ac3c at 38; C-terminal amide (NH2)) [Compound 40] |  | 16 pM | 275% | 120 pM | 151% | 167 pM | 34.1%
YXQGTXTSDYSIXLDKKAQXAFIEFLLETGPSSGAPPPS (Aib at 2; αMeF at 6; αMeL at 13; Lys 17 side chain AEEAc-AEEAc-γGlu-CO(CH2)18COOH; Aib at 20; C-terminal amide (NH2)) [Compound 14] |  | 10 pM | 440% | 11 pM | 1650% |  | 50%
YXQGTXTSDYSIXLDKKAQXAFIEYLLESHPSSXHPPXS (Aib at 2; αMeF(2F) at 6; αMeL at 13; Lys 17 side chain AEEAc-AEEAc-γGlu-CO(CH2)18COOH; Aib at 20; Aib at 34; Ac3c at 38; C-terminal amide (NH2)) [Compound 43] |  | 10 pM | 440% | 41 pM | 441% | 127 pM | 44.9%
YXQGTXTSDYSIXLDKKAQXAFIEFLLETRPSSXHPPPS (Aib at 2; αMeF(2F) at 6; αMeL at 13; Lys 17 side chain AEEAc-AEEAc-γGlu-CO(CH2)18COOH; Aib at 20; Aib at 34; C-terminal amide (NH2)) [Compound 39] |  | 78 pM | 56.4% | 15 pM | 1210% | 153 pM | 37.2%
YXQGTXTSDYSIXLDKKAQXAFIEYLLESHPSSGAPPXS (Aib at 2; αMeF at 6; αMeL at 13; Lys 17 side chain AEEAc-AEEAc-γGlu-CO(CH2)18COOH; Aib at 20; Ac3c at 38; C-terminal amide (NH2)) [Compound 3] |  |  | 100% | 24 pM | 754% | 120 pM | 47.5%
YXQGTXTSDYSIFLDKKAQXAFIEFLLETGPSSGAPPXS (Aib at 2; αMeF(2F) at 6; Lys 17 side chain AEEAc-AEEAc-γGlu-CO(CH2)18COOH; Aib at 20; Ac3c at 38; C-terminal amide (NH2)) [Compound 9] |  | 17 pM | 259% |  | 385% |  | 91.9%
YXQGTXTSDYSIFLDKKAQXAFIEYLLEGGPSSGAPPXS (Aib at 2; αMeF(2F) at 6; Lys 17 side chain AEEAc-AEEAc-γGlu-CO(CH2)18COOH; Aib at 20; Ac3c at 38; C-terminal amide (NH2)) [Compound 4] |  |  | 107% | 57 pM | 318% | 71 pM | 80.3%
YXQGTXTSDYSIFLDKKAQXAFIEYLLETGPSSGAPPPS (Aib at 2; αMeF at 6; Lys 17 side chain AEEAc-AEEAc-γGlu-CO(CH2)18COOH; Aib at 20; C-terminal amide (NH2)) [Compound 13] |  | 12 pM | 367% |  | 566% |  | 110%
YXQGTXTSDYSIXLDKKAQXAFIEYLLETGPSSGQPPPS (Aib at 2; αMeF at 6; αMeL at 13; Lys 17 side chain AEEAc-AEEAc-γGlu-CO(CH2)18COOH; Aib at 20; C-terminal amide (NH2)) [Compound 8] |  |  | 152% |  | 1510% | 71 pM | 80.3%
YXQGTXTSDYSIFLDKKAQXAFIEFLLESHPSSGAPPXS (Aib at 2; αMeF(2F) at 6; Lys 17 side chain AEEAc-AEEAc-γGlu-CO(CH2)18COOH; Aib at 20; Ac3c at 38; C-terminal amide (NH2)) [Compound 10] |  | 47 pM | 93.6% | 21 pM | 862% | 76 pM | 75%
YXQGTXTSDYSIXLDKKAQXAFIEYLLETGPSSGXPPPS (Aib at 2; αMeF at 6; αMeL at 13; Lys 17 side chain AEEAc-AEEAc-γGlu-CO(CH2)18COOH; Aib at 20; Aib at 35; C-terminal amide (NH2)) [Compound 7] |  | 10 pM | 440% | 13 pM | 1390% | 58 pM | 98.3%
YXQGTXTSDYSIFLDKKAQXAFIEFLLEGGPSSGAPPXS (Aib at 2; αMeF(2F) at 6; Lys 17 side chain AEEAc-AEEAc-γGlu-CO(CH2)18COOH; Aib at 20; Ac3c at 38; C-terminal amide (NH2)) [Compound 5] |  | 22 pM | 200% |  | 369% |  | 81.4%
YXHGTXTSDYSIXLDKKAQXAFIEYLLEXHPSSGQPPPS (Aib at 2; αMeF(2F) at 6; αMeL at 13; Lys 17 side chain AEEAc-AEEAc-γGlu-CO(CH2)18COOH; Aib at 20; Aib at 29; C-terminal amide (NH2)) [Compound 6] |  | 20 pM | 220% | 14 pM | 1290% | 58 pM | 98.3%
YXQGTXTSDYSIFLDKKAQXAFIEFLLETGPSSGAPPPS (Aib at 2; αMeF at 6; Lys 17 side chain AEEAc-AEEAc-γGlu-CO(CH2)18COOH; Aib at 20; C-terminal amide (NH2)) [Compound 12] |  | 14 pM | 314% |  | 221% |  | 13.7%

— patent US20250129135A1, “Multi-Agonist and Use Thereof” (priority 2021, published 2025)
